# From PMC5033702
# Legend:
# [1] = target: DDX5-K144N (MBP-DDX5-GST) (UniProt P17844 1-614, K144N); experiment: fluorescence anisotropy
# [2] = target: DDX5 WT (MBP-DDX5-GST) (UniProt P17844 1-614); experiment: fluorescence anisotropy
# DDX5 WT (MBP-DDX5-GST), sequence (P17844 whole entry): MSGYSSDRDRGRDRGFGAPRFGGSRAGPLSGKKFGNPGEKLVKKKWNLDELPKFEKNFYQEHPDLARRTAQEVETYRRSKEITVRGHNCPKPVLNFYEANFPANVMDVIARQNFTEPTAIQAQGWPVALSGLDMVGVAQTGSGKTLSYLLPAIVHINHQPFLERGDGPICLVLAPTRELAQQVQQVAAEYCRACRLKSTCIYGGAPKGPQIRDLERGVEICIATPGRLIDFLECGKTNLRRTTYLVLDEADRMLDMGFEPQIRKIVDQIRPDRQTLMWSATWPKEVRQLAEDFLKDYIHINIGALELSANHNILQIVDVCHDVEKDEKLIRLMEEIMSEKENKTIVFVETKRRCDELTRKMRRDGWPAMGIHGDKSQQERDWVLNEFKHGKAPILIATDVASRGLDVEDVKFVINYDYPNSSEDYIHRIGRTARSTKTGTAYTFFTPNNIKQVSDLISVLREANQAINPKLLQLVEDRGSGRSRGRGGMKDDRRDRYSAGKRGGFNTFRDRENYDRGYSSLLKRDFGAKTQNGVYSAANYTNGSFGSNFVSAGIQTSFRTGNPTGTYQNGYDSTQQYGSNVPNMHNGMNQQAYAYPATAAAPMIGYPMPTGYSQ
# DDX5-K144N (MBP-DDX5-GST), sequence (P17844 whole entry K144N): as the sequence (P17844 whole entry) above, with K144N counted along it
binder,measurement,setting,value
AGCACCGUAAAGACGC (ssRNA) [6-FAM ssRNA 16-mer],binding signal,[1],~4 fold reduced affinity vs WT (nearly 4-fold)
same,binding result,[2],binds
